Experimental data taken from paper PMC9779928, “Tartrate resistant acid phosphatase 5 (TRAP5) mediates immune cell recruitment in a murine model of pulmonary bacterial infection” (Frontiers in Immunology, 2022).
Ends that are not written are not given here.

Tests used:
[1] = target: T1, phosphorylated osteopontin (recombinant human OPN derived from HEK293 cells) (human, UniProt P10451 17-314, phosphorylated (sites not given; phosphorylation pattern in Supplementary Figure 2)); experiment: SPR; hBD3, SLPI and LL37 immobilised in different flow cells (50 ug/mL in 10 mM sodium acetate pH 5.5); dOPN or pOPN flowed at 10 uL/min; BIAcore X100, 25°C, HBS-EP (10 mM HEPES, 150 mM NaCl, 3 mM EDTA, 0.05% surfactant P20, pH 7.4); Langmuir model; details: both partners purified
T1 construct: osteopontin (OPN), human, recombinant, expressed in HEK293 cells; Commercial protein; From a eukaryotic host, so it probably differs from dOPN in glycosylation as well as in phosphorylation; also called pOPN; SPP1; source: bought: Peprotech (expressed in HEK293 cells; purity >= 97% according to the manufacturer)

[2] = target: T2, dephosphorylated (non-phosphorylated) osteopontin (recombinant human OPN expressed in E. coli) (human, UniProt P10451 17-314); experiment: as above; details: both partners purified
T2 construct: osteopontin (OPN), human, recombinant, expressed in E. coli, non-phosphorylated; Commercial protein; Called 'dephosphorylated' but it is simply made in E. coli (non-phosphorylated), not treated with a phosphatase; also called dOPN; SPP1; source: bought: Abcam (expressed in E. coli; purity >= 90% according to the manufacturer)
T2 sequence (P10451 17-314): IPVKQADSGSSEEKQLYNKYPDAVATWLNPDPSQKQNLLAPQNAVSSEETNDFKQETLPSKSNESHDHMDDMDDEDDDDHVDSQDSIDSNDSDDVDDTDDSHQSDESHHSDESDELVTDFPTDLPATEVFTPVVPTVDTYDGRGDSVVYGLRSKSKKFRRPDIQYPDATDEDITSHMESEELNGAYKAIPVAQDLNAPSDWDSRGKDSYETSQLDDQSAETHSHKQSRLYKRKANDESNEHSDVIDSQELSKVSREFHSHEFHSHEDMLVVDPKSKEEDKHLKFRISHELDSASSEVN

T1 sequence (P10451 17-314): as above

| Kd [1] [nM] | Kd [2] [nM] | Binder |
| --- | --- | --- |
| 6.5 | 83.8 | GIINTLQKYYCRVRGGRCAVLSCLPKEEQIGKCSTRGRKCCRRKK (peptide, UniProt P81534 23-67, looked up, ends and bridges not checked; cysteine pairing not given here, human beta-defensin 3 (hBD-3), antimicrobial peptide; also called hBD3; hBD-3; source: bought: Abcam) [human β-defensin-3] |
| 6.25 | 4650 | secretory leukocyte protease inhibitor (natural protein, UniProt P03973 26-132, looked up, Commercial protein; also called SLPI; source: bought: Abcam) SGKSFKAGVCPPKKSAQCLRYKKPECQSDWQCPGKKRCCPDTCGIKCLDPVDTPNPTRRKPGKCPVTYGQCLMLNPPNFCEMDGQCKRDLKCCMGMCGKSCVSPVKA |
